Reference: patent US20250382344A1, “Soluble GLP1/GIP/NPY2 Receptor Triple Agonists” (Boehringer Ingelheim International GmH, priority 2024, published 2025)
*1 amine or outer side, *2 acyl side, *3 side chain or, on linkers, in order; H or OH if unused. Where no end group is shown, it is not given here. Side-chain parts run from the residue outwards. [ ]: non-standard residue; d: D form. The star is where a group is joined. C20 diacid = O=C(O)CCCCCCCCCCCCCCCCCCC(=O)*; C18 diacid = O=C(O)CCCCCCCCCCCCCCCCC(=O)*; γGlu = O=C(O)[C@H](CCC(=O)[*:2])N[*:1]; εLys = N[C@@H](CCCCN[*:1])C(=O)[*:2]; TRX = not defined here; AEEA = NCCOCCOCC(=O)O; Aib = CC(C)(N)C(=O)O

What was measured:
[1] = biological target: T1, human neuropeptide Y2 receptor (human, UniProt P49146 1-381); assay: cell-based or functional assay
T1 sequence (looked up): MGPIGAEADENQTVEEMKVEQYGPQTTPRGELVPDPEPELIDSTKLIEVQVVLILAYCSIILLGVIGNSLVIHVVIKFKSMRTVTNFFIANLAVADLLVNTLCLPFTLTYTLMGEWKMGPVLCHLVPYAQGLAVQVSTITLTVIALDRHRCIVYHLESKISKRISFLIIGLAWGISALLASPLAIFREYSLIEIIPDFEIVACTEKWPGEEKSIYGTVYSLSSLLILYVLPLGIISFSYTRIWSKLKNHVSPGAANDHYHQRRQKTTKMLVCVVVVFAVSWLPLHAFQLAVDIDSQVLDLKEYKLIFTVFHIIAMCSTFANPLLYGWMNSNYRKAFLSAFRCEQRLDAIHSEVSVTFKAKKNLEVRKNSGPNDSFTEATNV

[2] = biological target: T2, human GIP receptor (human, UniProt P48546 22-466); assay: cell-based or functional assay
T2 sequence (looked up): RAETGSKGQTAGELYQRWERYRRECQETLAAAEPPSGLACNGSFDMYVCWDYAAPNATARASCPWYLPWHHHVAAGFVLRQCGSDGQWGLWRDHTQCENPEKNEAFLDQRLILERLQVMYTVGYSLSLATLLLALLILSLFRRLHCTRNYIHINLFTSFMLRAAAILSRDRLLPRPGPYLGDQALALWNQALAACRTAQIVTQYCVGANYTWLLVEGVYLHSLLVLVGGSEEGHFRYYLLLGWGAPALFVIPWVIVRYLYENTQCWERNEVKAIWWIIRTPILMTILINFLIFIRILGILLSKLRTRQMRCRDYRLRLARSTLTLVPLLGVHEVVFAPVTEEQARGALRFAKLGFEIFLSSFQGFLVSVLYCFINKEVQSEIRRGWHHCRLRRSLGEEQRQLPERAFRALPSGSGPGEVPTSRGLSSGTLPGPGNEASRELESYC

Binder | EC50, CreLuc reporter, 0.5% hP [1] [nM] | EC50, CreLuc reporter, 100% hP [1] [nM] | EC50, CreLuc reporter, 0.5% hP [2] [nM] | EC50, CreLuc reporter, 100% hP [2] [nM]
Y[Aib]EGTFTSDYSI[Aib]LDEQAQ[Aib]AFVRHLINK([εLys-εLys-γGlu-γGlu-γGlu-γGlu-γGlu-C20 diacid])[Aib]TRQRY-NH2 [Compound 155] | 6 | 63.1 | 0.7 | 6.1
Y[Aib]EGTFTSDYSI[Aib]LEKQAE[Aib]AFVRHLINK([εLys-γGlu-AEEA-γGlu-γGlu-γGlu-γGlu-C20 diacid])[Aib]TRQRY-NH2 [Compound 148] |  |  | 0.8 | 
Y[Aib]EGTFTSDYSI[Aib]LDEQAQ[Aib]AFVRHLINK([εLys-γGlu-γGlu-γGlu-γGlu-γGlu-C20 diacid])[Aib]TRQRY-NH2 [Compound 138] |  |  | 0.5 | 11.5
Y[Aib]EGTFTSDYSI[Aib]LEKQAQ[Aib]AFVRHLINK([γGlu-γGlu-γGlu-γGlu-γGlu-γGlu-TRX-C20 diacid])[Aib]TRQRY-NH2 (reading uncertain) [Compound 133] | 44.9 | 246 |  | 3.4
Y[Aib]EGTFTSDYSI[Aib]LDKQAQ[Aib]EFVRHLINK([εLys-γGlu-γGlu-γGlu-γGlu-γGlu-C18 diacid])[Aib]TRQRY-NH2 [Compound 113] |  |  | 0.2 | 5.5
YXEGTFTSDYSIXLEKQAQEAFVRHLINKXTRQRY (Aib at 2, 13, 30; Lys29 epsilon-amino: C18DA-gGlu-gGlu-gGlu-gGlu-gGlu-gGlu-eLys; C-terminal amide) [Compound 170] | 43.8 | 244 | 0.4 | 
YXEGTFTSDYSIXLEKQAQXAFVRHLINKATRQRY (Aib at 2, 13, 20; Lys29 epsilon-amino: C18DA-gGlu-gGlu-gGlu-gGlu-gGlu-gGlu-eLys; C-terminal amide) [Compound 159] | 11.5 | 57.5 | 0.2 | 
YXEGTFTSDYSIXLEKQAQXAFVRHLINKLTRQRY (Aib at 2, 13, 20; Lys29 epsilon-amino: C18DA-gGlu-gGlu-gGlu-gGlu-gGlu; C-terminal amide) [Compound 158] | 26 | 149 | 0.5 | 14.4
YXEGTFTSDYSIXLEGQAQXAFVRHLINKXTRQRY (Aib at 2, 13, 20, 30; Lys29 epsilon-amino: C18DA-gGlu-gGlu-gGlu-gGlu-gGlu-gGlu-eLys; C-terminal amide) [Compound 95] | 58 | 96.3 |  | 9.3
YXEGTFTSDYSILLEKQAQXAFVRHLINKXTRQRY (Aib at 2, 20, 30; Lys29 epsilon-amino: C18DA-gGlu-gGlu-gGlu-gGlu-gGlu; C-terminal amide) [Compound 122] | 60.8 | 284 | 0.1 | 4.5
YXEGTFTSDYSIXLEKQAQXAFVRHLINKXTRQRY (Aib at 2, 13, 20, 30; Lys29 epsilon-amino: C20DA-gGlu-gGlu-gGlu-gGlu-gGlu-AHX-AHX; C-terminal amide) [Compound 106] | 7.1 | 41.7 |  | 4.7
YXEGTFTSDYSIXLEKQAQXAFVRHLINKXTRQRY (Aib at 2, 13, 20, 30; Lys29 epsilon-amino: C18DA-gGlu-gGlu-gGlu-gGlu-gGlu-OEG; C-terminal amide) [Compound 140] | 22 | 141 |  | 8
YXEGTFTSDYSIXLEKQAQYAFVRHLINKXTRQRY (Aib at 2, 13, 30; Lys29 epsilon-amino: C18DA-gGlu-gGlu-gGlu-gGlu-gGlu-gGlu-eLys; C-terminal amide) [Compound 151] | 32.6 | 89.8 | 0.5 | 5.6
YXEGTFTSDYSIXLEKQAQXSFVRHLINKXTRQRY (Aib at 2, 13, 20, 30; Lys29 epsilon-amino: C18DA-gGlu-gGlu-gGlu-gGlu-gGlu-gGlu-eLys; C-terminal amide) [Compound 144] |  |  | 0.4 | 4.8
YXEATFTSDYSIXLEKQAQXAFVRHLINKXTRQRY (Aib at 2, 13, 20, 30; Lys29 epsilon-amino: C18DA-gGlu-gGlu-gGlu-gGlu-gGlu-gGlu-eLys; C-terminal amide) [Compound 93] |  | 24.8 |  | 17.6
YXEGTFTSDYSIXLDKQAQXAFVRYLINKXTRQRY (Aib at 2, 13, 20, 30; Lys29 epsilon-amino: C18DA-gGlu-gGlu-gGlu-gGlu-gGlu-gGlu-eLys; C-terminal amide) [Compound 153] | 40 | 65.5 | 0.1 | 
YXEGTFTSDYSIXLEKQAQXAFVRHLINKLTRQRY (Aib at 2, 13, 20; Lys29 epsilon-amino: C18DA-gGlu-gGlu-gGlu-gGlu-gGlu-gGlu-eLys; C-terminal amide) [Compound 127] | 10.3 | 76.9 |  | 16.7
YXEGTFTSDYSIXLEKQAQXAFVRHLINKXTRQRY (Aib at 2, 20, 30; aMeL at 13; Lys29 epsilon-amino: C20DA-gGlu-gGlu-gGlu-gGlu-gGlu-gGlu-eLys; C-terminal amide) [Compound 150] |  | 90.7 |  | 2.8
YXEGTFTSDYSIXLEKQAQXAFVRHLINKXTRQRX (Aib at 2, 13, 20, 30; Phe4F at 35; Lys29 epsilon-amino: C18DA-gGlu-gGlu-gGlu-gGlu-gGlu-gGlu-eLys; C-terminal amide) [Compound 86] | 33.2 | 162 | 0.3 | 5.9
YXEGTFTSDYAIXLEKQAQXAFVRHLINKXTRQRY (Aib at 2, 13, 20, 30; Lys29 epsilon-amino: C18DA-gGlu-gGlu-gGlu-gGlu-gGlu-gGlu-eLys; C-terminal amide) [Compound 142] | 17.4 | 31.8 | 0.3 | 3.4
YXEGTFTSDYSIXLEKQAQXAFVRHAINKXTRQRY (Aib at 2, 13, 20, 30; Lys29 epsilon-amino: C18DA-gGlu-gGlu-gGlu-gGlu-gGlu-gGlu-eLys; C-terminal amide) [Compound 139] |  | 22.7 | 12.2 | 22.3
YXEGTFTSDYSIXLEKAAQXAFVRHLINKXTRQRY (Aib at 2, 13, 20, 30; Lys29 epsilon-amino: C18DA-gGlu-gGlu-gGlu-gGlu-gGlu-gGlu-eLys; C-terminal amide) [Compound 143] |  |  | 0.3 | 
YXEGTFTSDYSIXLEKQAQXAFVRHLINKVTRQRY (Aib at 2, 13, 20; Lys29 epsilon-amino: C18DA-gGlu-gGlu-gGlu-gGlu-gGlu-gGlu-eLys; C-terminal amide) [Compound 126] |  |  | 0.4 | 
Y[Aib]EGTFTSDYSI[Aib]LEKQAQ[Aib]AFVRHLINK([εLys-γGlu-γGlu-γGlu-γGlu-γGlu-γGlu-γGlu-C18 diacid])[Aib]TRQRY-NH2 [Compound 121] | 13.8 |  |  | 2.8
Y[Aib]EGTFTSDYSI[Aib]LEKQAQ[Aib]AFVRHLINK([AEEA-γGlu-γGlu-γGlu-γGlu-γGlu-γGlu-C20 diacid])[Aib]TRQRY-NH2 [Compound 99] | 16.7 | 125 | 0.5 | 9
Y[Aib]EGTFTSDYSI[Aib]LEKQAE[Aib]AFVRHLINK([εLys-γGlu-γGlu-AEEA-γGlu-γGlu-γGlu-C20 diacid])[Aib]TRQRY-NH2 [Compound 162] |  | 43.8 | 0.7 | 
Y[Aib]EGTFTSDLSI[Aib]LEKQAQ[Aib]AFVRHLINK([εLys-γGlu-γGlu-γGlu-γGlu-γGlu-γGlu-γGlu-C20 diacid])[Aib]TRQRY-NH2 [Compound 135] | 18.8 | 47.8 | 0.5 | 5.8
Y[Aib]EGTFTSDYSI[Aib]LEKQAQ[Aib]AFVRHLINK([γGlu-γGlu-AEEA-γGlu-γGlu-γGlu-γGlu-C20 diacid])[Aib]TRQRY-NH2 [Compound 136] | 38.5 | 123 | 0.5 | 9.1
